From the supplement of paper PMC7125110
± gives the standard error. Fewer inactive variants are shown than the library holds.

B1: glmS ribozyme (parent)
chain: AUAAAAGCGCCAGAACUACAGAAAUGUAGUUGACGAGGAGGAGGUUUAUCGAAUUUUCGGCGGAUGCCUCCAAA

Experiments:
Settings in all cases: with glucosamine-6-phosphate
[1] = variants of: B1; assay: self-cleavage kobs at 40 uM GlcN6P; higher = faster cleavage; RNA array
In short: (§1)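 E. coli RNA polymerase transcribed barcoded ribozyme variants in situ on sequenced MiSeq chips, which were tracked via a hybridised Cy3 probe at 37 °C. Tiles were imaged over ~14 h after glucosamine-6-phosphate (40 μM to 10 mM) in HEPES/KCl/Mg(OAc)2 buffer was flowed in. Normalised per-tile medians were fit to one- or two-exponential decays for kobs, and kcat and KM came from weighted Michaelis–Menten fits.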

[2] = variants of: B1; assay: self-cleavage kobs at 160 uM GlcN6P; higher = faster cleavage; RNA array
In short: as §1

[3] = variants of: B1; assay: self-cleavage kobs at 640 uM GlcN6P; higher = faster cleavage; RNA array
In short: as §1

[4] = variants of: B1; assay: self-cleavage kobs at 2500 uM GlcN6P; higher = faster cleavage; RNA array
In short: as §1

[5] = variants of: B1; assay: self-cleavage kobs at 10000 uM GlcN6P; higher = faster cleavage; RNA array
In short: as §1

| Variant | self-cleavage kobs at 40 uM GlcN6P [1] | self-cleavage kobs at 160 uM GlcN6P [2] | self-cleavage kobs at 640 uM GlcN6P [3] | self-cleavage kobs at 2500 uM GlcN6P [4] | self-cleavage kobs at 10000 uM GlcN6P [5] |
| --- | --- | --- | --- | --- | --- |
| A6G A12G U31A U54A C71A | < 1e-05 s⁻¹ | < 1e-05 s⁻¹ | < 1e-05 s⁻¹ | < 1e-05 s⁻¹ | – |
| G35U U47A C50G C70U | 0.000411 ± 0.00012 s⁻¹ | – | – | – | 0.000429 ± 0.00017 s⁻¹ |
| A39C G62A | < 1e-05 s⁻¹ | – | < 1e-05 s⁻¹ | – | < 1e-05 s⁻¹ |
| G26U C70U | 0.000967 ± 0.00041 s⁻¹ | 0.00126 ± 0.00046 s⁻¹ | – | 0.000552 ± 0.0002 s⁻¹ | – |
| A12G G35U C50U | < 1e-05 s⁻¹ | – | – | – | – |
| G32C C34A | < 1e-05 s⁻¹ | < 1e-05 s⁻¹ | < 1e-05 s⁻¹ | – | < 1e-05 s⁻¹ |
| A39G U45G A48G | < 1e-05 s⁻¹ | – | – | – | 6.43e-05 ± 1.9e-05 s⁻¹ |
| A15U G32U A33U | < 1e-05 s⁻¹ | – | – | – | – |
| G35A G41A | < 1e-05 s⁻¹ | < 1e-05 s⁻¹ | < 1e-05 s⁻¹ | < 1e-05 s⁻¹ | < 1e-05 s⁻¹ |
| U30A C61U | < 1e-05 s⁻¹ | – | < 1e-05 s⁻¹ | – | < 1e-05 s⁻¹ |
| C10U G66C | < 1e-05 s⁻¹ | – | < 1e-05 s⁻¹ | – | < 1e-05 s⁻¹ |
| A6C C34A | < 1e-05 s⁻¹ | < 1e-05 s⁻¹ | < 1e-05 s⁻¹ | < 1e-05 s⁻¹ | < 1e-05 s⁻¹ |
| C11U A33G U69A | < 1e-05 s⁻¹ | – | – | – | < 1e-05 s⁻¹ |
| A12G G44C C67G | < 1e-05 s⁻¹ | – | – | – | 0.000225 ± 4.3e-05 s⁻¹ |
| C8A G9A A33U | < 1e-05 s⁻¹ | – | – | – | – |
| G29C U56A | 4.47e-05 ± 1.2e-05 s⁻¹ | 2.63e-05 ± 1.3e-05 s⁻¹ | 0.000209 ± 3.6e-05 s⁻¹ | 0.000439 ± 8.7e-05 s⁻¹ | 0.00136 ± 0.00016 s⁻¹ |
| G37A G40C A48U G63A | < 1e-05 s⁻¹ | – | – | – | – |
| A14G G29U A36G | < 1e-05 s⁻¹ | – | – | – | – |
| G38A G41A G63C | < 1e-05 s⁻¹ | – | – | – | – |
| G13U U56A G59U | < 1e-05 s⁻¹ | – | – | – | – |
| G35C C50U G51C | < 1e-05 s⁻¹ | < 1e-05 s⁻¹ | < 1e-05 s⁻¹ | < 1e-05 s⁻¹ | < 1e-05 s⁻¹ |
| C10G C16U | < 1e-05 s⁻¹ | < 1e-05 s⁻¹ | – | – | – |
| A53G C67A | 0.000314 ± 3.3e-05 s⁻¹ | – | 0.00067 ± 0.00014 s⁻¹ | 0.000612 ± 0.00025 s⁻¹ | 0.00957 ± 0.0018 s⁻¹ |
| C8G G9C C16A G38A G40U U49G U57C | < 1e-05 s⁻¹ | – | – | – | < 1e-05 s⁻¹ |
| G7C G63C C68G U69A | < 1e-05 s⁻¹ | – | – | – | < 1e-05 s⁻¹ |
